Experimental data: PMC8508734 (International Journal of Molecular Sciences, 2021)
Blank lines part the entries; values can stand above or below the molecule they belong to.

Assays:
[1] = molecular target: T1, histamine H3 receptor (H3R) (Rattus norvegicus, UniProt Q9QYN8); assay: BRET between H3R-RLuc and H3R-YFP in HEK […] cells; also […]GTPγS binding (inverse agonist); format: cell-based
T1 construct: gene Hrh3; long isoform H3(445)R, C-terminal RLuc / YFP fusions

[2] = molecular target: T2, H3R-RLuc (rat histamine H3 receptor, long isoform H3(445)R, fused to Renilla Luciferase) (rat, UniProt Q9QYN8 1-445); assay: FRET or BRET; BRET donor saturation curves in intact living HEK 293 cells, constant RLuc fusion and increasing YFP fusion, 48 h after transfection, HBSS, 25 °C, coelenterazine H 5 µM; without or with imetit or thioperamide (100 nM); settings: partners not purified
T2 construct: histamine H3 receptor, rat, long isoform H3(445)R (445 residues), cDNA amplified without its stop codon and cloned into pRL-CMV-RLuc; The same construct was expressed in HEK 293 cells and in rat cortical neurons; the assay tells which; also called H3R-Luc; source: rat cortical neurons in primary culture, transfected (lipofectamine 2000); not shown: Renilla Luciferase (RLuc), C-terminal, kept

Molecule: S=C(NC1CCCCC1)N1CCC(c2cnc[nH]2)CC1 [thioperamide]
EC50 [1]: 2 ± 1 nM

BRET50 (basal) [2]: 1.24 acceptor/donor ratio
BRET50 (with imetit 100 nM) [2]: 1.19 acceptor/donor ratio
BRET50 (with thioperamide 100 nM) [2]: 1.56 acceptor/donor ratio
B1: H3R-YFP (rat histamine H3 receptor, long isoform H3(445)R, fused to Yellow Fluorescent Protein) (receptor, UniProt Q9QYN8 1-445, looked up)
chain: MERAPPDGLMNASGTLAGEAAAAGGARGFSAAWTAVLAALMALLIVATVLGNALVMLAFVADSSLRTQNNFFLLNLAISDFLVGAFCIPLYVPYVLTGRWTFGRGLCKLWLVVDYLLCASSVFNIVLISYDRFLSVTRAVSYRAQQGDTRRAVRKMALVWVLAFLLYGPAILSWEYLSGGSSIPEGHCYAEFFYNWYFLITASTLEFFTPFLSVTFFNLSIYLNIQRRTRLRLDGGREAGPEPPPDAQPSPPPAPPSCWGCWPKGHGEAMPLHRYGVGEAGPGVEAGEAALGGGSGGGAAASPTSSSGSSSRGTERPRSLKRGSKPSASSASLEKRMKMVSQSITQRFRLSRDKKVAKSLAIIVSIFGLCWAPYTLLMIIRAACHGRCIPDYWYETSFWLLWANSAVNPVLYPLCHYSFRRAFTKLLCPQKLKVQPHGSLEQCWK
notes: histamine H3 receptor, rat, long isoform H3(445)R (445 residues), cDNA amplified without its stop codon and cloned into pEYFP-N1; The same construct was expressed in HEK 293 cells and in rat cortical neurons; the assay tells which; also called C-terminal YFP-fused H3R; source: rat cortical neurons in primary culture, transfected (lipofectamine 2000); not shown: YFP, C-terminal, kept
